The nature of this data set: yeast display, Sf9 membrane polyspecificity reagent, FACS + sequencing; frameworks hold sequencing errors. In outline:
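Synthetic nanobody libraries on Saccharomyces cerevisiae BJ5465 were galactose-induced for 36–48 hours, stained 1 hour at 4 °C with 10% biotinylated, detergent-solubilized Sf9 membrane reagent and enriched on streptavidin microbeads. FACS then separated cells into low and high (top ~1%) gates by anti-HA (expression) and streptavidin (reagent binding) fluorescence. Genes were colony-PCR amplified, MiSeq 2 × 250 sequenced and CDR-length filtered. A clone's polyreactivity label is that of its gate of origin.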
Turning to “HVQLVESGGGLVQAGGSLRLSCAASGSIFDTYAMGWYRQAPGKERELVAAINFSDGDTYYADSVKGRFTSSRDNSKNTVYLQLNSLKPEDTAVYDCAAEVWDPPEYYDEYDYWGQGTQVTVSS”, the “polyreactivity (PSR sort gate)” value was “low polyreactivity”.
Consider “QVQLVESGGGLVQAGGSLRLICAASGLIFKVYAMGWYRQAPGKERELVAAITYSGGSTDYADSVKGRFTISRDNAKNTVYLQMNSLKPEDTAVYYCNVEKVGHVNSYGYDYWGQGTQVTVSS”, for which the “polyreactivity (PSR sort gate)” value is listed as “low polyreactivity”.
In the case of “QVQLVESGGGLVQAGGSLRLSCAASGFTFDYYAMGRDIPAPGKERELVAAISRAGSTNYADSVKGRFTISRDNAKNTVYLQMNSLKPEDTAVYYCNKGYHSWSRLSQFGWSYDYWGQGTQVTVSS”, the “polyreactivity (PSR sort gate)” value is given as “high polyreactivity”.
Under “QVHLVESGGGLVQAGGSLRLSCAASGRTLYDYAMEWYRQAPAKERELVAGITSGDSTYYADSVKGRFTISRDNAKNTVYLQMNSLKPEDTAVYYCAADSDTFYYTGYDYDYWGQGTQVTVSS” stands “low polyreactivity”; under “QVQLVESGGVLVQAGGSLRLSCAASGRIFGENAMGWYRQAPGKEREFVAVISISDASTYYADSVKGRFTISRDNAKNTVYLQMNSLKPEDTAVYYCADDLTDFLYVASDYWGQGTQVTVSS”, “low polyreactivity”.
Consider “QVQLVESGGGLVQAGGSLRLSCAASGFTFSYYAMGWYRQAPGKERELVASISRSGNTYYADSVKGRFTISRDNAKNTVYLQMNSLKPEDTAVYYCAADQVYASTHVWGYDYWGQGTQVTVSS”, for which the “polyreactivity (PSR sort gate)” value was “high polyreactivity”.
For “QVQLVESGGGLVQAGGSLRLSCAASGFTFPVYAMGWYRQAPGKEREFVAAITYIGGSTYADSVKGRFTISRDNAKNTVYLQMNSLKPEDTAVYYCNADDARLFDYWGQGTQVTVSS”, the “polyreactivity (PSR sort gate)” value is recorded as “low polyreactivity”.
The same measure for “QVHLVESGGGLVQAGGSLRLSCAASGNIFYPNAMGWYRQAPGKERELVAAISSSGGSTYYADSVKGRFTISRDNAKNTVYLQMNSLKPEDTAVYYCNAYRQYRYDYWGQGTQVTVSS”: “low polyreactivity”.
Regarding “QVQLVESGGGLVQAGGSLRLSCAASGSILRPNVMGWYRQAPGKERELVARISSRGVNTYYADSVKGRFTLSRDNAKNTVYLQMHSLKPEDTAVFYCNARRAQYYWNRSAKYDYWGQGTQVTVSS”, the “polyreactivity (PSR sort gate)” value is on record as “high polyreactivity”.
Under “QVQLVESGGGLVQAGGSLRLSCAASGFIIVRYAMGWYRQAPGKERELVAAITRSGGSTYYADSVKGRFTISRDNAKNTVYLQMNSLKPEDTAVYYCNAYRQGFTYARMDYWGQGTQVTVSS” stands “high polyreactivity”.
Turning to “QVQLVESGGGLVQAGGSLRLSCAASGFIFYSNAMGWYRQAPGKERELVATITGDGGTTYYADSVKGRFTISRDNAKNTVYLQMNSLKPEDTAVYYCAKDYIYRGYYTDFRYEDYDYWGQGTQVTVSS”, the “polyreactivity (PSR sort gate)” value is given as “low polyreactivity”.
Take “QVQLVESGGGLVQAGGSLRLSCAASGFIFGIYAMGWYRQAPGKEREFVAAITGSAGSTYYADSVKGRFTISRDNAKNTVYLQMNSLKPEDTAVYYCAAVLRTHRYGGYNYWGQGSQVTVSS”: the “polyreactivity (PSR sort gate)” value was “low polyreactivity”.
“QVQLVESGGGLVQAGGSLRLSCDASGNIFSWNTMGWYRKAPGKEWELVAAITFRVTRTFYADSVKGRFTISRDNAKNTVYFLMNSLNPEDTAVYYCAARYYYSYSLGYDYWGQGTQVTVSS”: the “polyreactivity (PSR sort gate)” value is reported as “high polyreactivity”.
As for “QVQLVESGGGLVQAGGSLRLSCAASGITFPGYAMGWYRQAPGKERELVAVIRKSGTSTGGNTYYADSVKGRFTISRDNAKNTVYLQMNSLKPEDTAVYYCAKKYVWTHNYWGQGTQVTVSS”, the “polyreactivity (PSR sort gate)” value is “low polyreactivity”.
As for “QVQLVESGGGLVQAGGSLRLSCAASGRIFANAMGWYRQAPGKERELVAAISTSGGRTYYADSVKGRFTISRDNAKNTVYLQMNSLKPEDTAVYYCAARPHTPPVTSGYNHWGQGTQVTVSS”, the “polyreactivity (PSR sort gate)” value is recorded as “high polyreactivity”.
In the case of “QVQLEESAGGLVQAGGSLRLSCAASGRIFNYYAMGWYRQAPGKERELVATISSTGSSTYYADSVKGRFTISRDNAKNTVYLQMNSLKPEDTAVYYCAARYVRQYYRAEDYWGQGTQVTVSS”, the “polyreactivity (PSR sort gate)” value is recorded as “high polyreactivity”.
For the sequence “QVQLVESGGGLVQAGGSLRLSCAASGSIFRRNAMGWYRQAPGKEREFVAAITWIGGSTYYADSVKGRFTISRDNAKNTVYLQMNSLKPEDTAVYYCAAKYRTYPSNYYYWGQGTQVTVSS”, the “polyreactivity (PSR sort gate)” value is on record as “high polyreactivity”.
With “QVQLVESGGGLVHAGGSLRLSCAASGFTIRSYVMGWYRQAPGKERELVAAIRRSGGSTYYADSVKGRFTISRDNAKNTVYLQMNCLKPEDTAVYYCNADIRAYTVLTGGYIYDYWGQGTQVTVSS”, the “polyreactivity (PSR sort gate)” value is given as “high polyreactivity”.
“QLKLEESGGGLVQAGGSLRLSCAASGITFPWYAMGWYRQAPGKERELVAAINRAGNTNYADSVKGRFTISRDNAKNTVYLQRNSLKTEDTAVYYCAARWRYKYTLGYWGQGTQVTVSS”: the “polyreactivity (PSR sort gate)” value is reported as “high polyreactivity”.
As to “QDQLVESGGGLVQAGGSLRLSCAASGPIFYSNAMGWYRQAPGKERELVAAISSGDGITYYADSVKGRFTISRDNAKNTVYLQMNSLKPEDTAVYYCAADGYYDYPYSGDYWGQGTQVTVSS”, the “polyreactivity (PSR sort gate)” value is listed as “high polyreactivity”.
Turning to “QVQLVESGGGFLQAGGSLRLSCAASGRIFNYYAMGWYRQAPGTERELVAGINWSGTRTYYADSVKGRFTISRDNAKNTVYLQMNSLKPEDTAVYYCNAGRTWRAFTGDEYWGQATQVTVSS”, the “polyreactivity (PSR sort gate)” value is listed as “high polyreactivity”.
With “QVQLVESGGGLVQAGGSHRLSCAASGRTFRYYTMGWYRQAPGKEREFVAAISSTGGTYYADSVKGRFTISRDNAKNTVYLQMNSLKPEDTAVYYCAKVYFWGALSPDKYDEDYWGQGTQVTVSS”, the “polyreactivity (PSR sort gate)” value is “low polyreactivity”.
With “QVQLVESGGGLVQAGGSLRLSCAASGSITPRNAMGWYRQAPGKERELVARISGSGGTTYYADSVKGRFTISRDNAKNTVYLQMKSLKPEDTAVYYCAASVRWNKYTLYDYWGQGTQVTVSS”, the “polyreactivity (PSR sort gate)” value is “low polyreactivity”.
The same measure for “QVQLVESGGGLVQAGGSLRLSCAASGMIFQDNAMGWYSQAPGKERELVAAITTGGITYYADSVKGRFTISRDNAKNTVYLQMNSLKPEDTAVYYCATDPVKSGYQRYYYWGQGTQVTVSS”: “low polyreactivity”.
Under “QVQLVESGGGLVQAGGSLRLICAASGLIFYDNMGWYRQAPGKERELVAAISSSGGSTSYADSVKGRFTISRDNAKNTVYLQMNSLKPEDTAVYYCAADSYPAYLGFVGFDYWGQGTQVTVSS” stands “low polyreactivity”.
On to “QVQLVESGGGLVQAGGSLRLSCAASGSIFYGYAMGWYRPAPGKERELVAAINWSGGGTYYADSVKGRFTISRDNAKNTVYLQMNSLKPEDTAVYYCAAGHVVRRPYLIYDYWGQGTQVTVSS”, for which the “polyreactivity (PSR sort gate)” value was “high polyreactivity”.
Turning to “QLQLHESGGGLVQAGGCLSCTASGTIFGQGDMGWYRQAPGKERELVATINDGASTYYADSVKGRFTISRDKAKNTVYLKKNSLKPDDNAVYYCAVFTDITTYFGYWGQGTQVTVSS”, the “polyreactivity (PSR sort gate)” value is listed as “low polyreactivity”.
“QVQLVESGGGLVQAGGSLRLSCAASGRTLDVYAMGWSRQAPGKERELVASITSSGARTYYADSVKGRFTISRDNAKNTVYLQMNSLKPEDTAVYYCAARVYRYSASRAYDYWGQGSQVTVSS”: the “polyreactivity (PSR sort gate)” value was “high polyreactivity”.
Under “QVQLVESGGGLVQARGSLRLSCAASGSIFYGYALGWYRQAPGKERELVAAITSSGTRTYYADSVKGRFTISRDNAKNTVYLQMNSLKPEDTAVYYCAADGPGYQYDFWGQGTQVTVSS” stands “high polyreactivity”.
For the sequence “QVQLVDSGGGLVQAGGSLRLSCDASGFIFERYAMGWYRQAPGKERELVAGIYSGGSTYYADSVKGRFTISRDNAKNTVYLQMNSLKPEDTAVYYCAPYRRQHIIYNYWGQGTQVTVSS”, the “polyreactivity (PSR sort gate)” value was “high polyreactivity”.
Regarding “QVQLVESGGGLVQAGGSLRLSCAASGSTFYLYAMGWYRQAPGKERELVAAISWTGGSTTYADSVKGRFTISRDNAKNTVYLQMNSLKPEDTAVYYCAADEGLIDGRAWYGYWGQGTQVTVSS”, the “polyreactivity (PSR sort gate)” value is given as “low polyreactivity”.
As to “QVQLVESGGRLVQAGGSLRLSCAASGRILPGNAMGWYRQAPGKEREFVAAISYSGGRTYYADSVKGRFTISRDNAKNNVYLQMNSLKPEDTAVYSCAARSYGSAYYYWGQGTQVTVSS”, the “polyreactivity (PSR sort gate)” value is reported as “high polyreactivity”.
In the case of “QVQLVESGGGLVQAGGSLRLSCAASGRIFYDYAMGWYRQAPGKERELVAAISGSGGSTYYADSVKGRFTISRDNAKNTVYLQMNSLKPEDTAVYYCNRYTTRYYPGGDYWGQGTQVTVSS”, the “polyreactivity (PSR sort gate)” value was “high polyreactivity”.
For “QVQLVESGGGLVQAGGSLRLSCAASGFIFYYNAMGWYRQAPGKERELVATIRGSGGSTYYADSVKGRFTISRDTAKNTVYLHMNSLKPEDTAVYYCATTIYGLTSRLYYWGQGTQVTVSS”, the “polyreactivity (PSR sort gate)” value is given as “high polyreactivity”.
Turning to “QVQLVESGGGLVQAGGSLRLSCAASGRIYNSNAMGWYRQAPGKERQLVAAITTSGASTYYADSVKGRFTISRDNAKNTVYLQMNSLKPEDTSVYYCATYAVVYPFAMDYWGQGTQVTVSS”, the “polyreactivity (PSR sort gate)” value was “low polyreactivity”.
“QVHLVESGGGLVQAGGSLRLSCAASGFTFSFYAMGWYRQAPWKEIEFVAAITNSGGSTYYADSVKGRFTISRDNSKNSVYLQMNSLKPEDTAVYYCATKRAWPGYFTYYYWGQGTQVTVSS”: the “polyreactivity (PSR sort gate)” value is listed as “high polyreactivity”.
Regarding “QDQLVESGGGLVQAGGSLRLSCAASGSTFWFYAMGWSRQAPGKEWELVAVISNSGSTYYADSVKGRFTISRDNAKNTVYLQLNSLKPEDTAVYYCNTDGGGDSYWYDYWGQGTQVTVSS”, the “polyreactivity (PSR sort gate)” value was “low polyreactivity”.
Consider “QVQLVESGGGLVQARGSLRLSCAASGIILYRNGMGWYRQAPGKERELVAAISWSTGSTYYADSVKGRFTISRDNAKNTVYLQMNSLKPEDTAVYYCATDYVGYSFGMYYWGQGTQVTVSS”, for which the “polyreactivity (PSR sort gate)” value is reported as “low polyreactivity”.
Regarding “QVQLVESGGGLVQAGGSLRLSCAASGSTFDFNAMGWYRQAPGKERELVAAITGSDGNTYYADSVKGRFTISRDNAKNNVYLQMNTLTPEDTAVYYFAADFSWWSKYVVLYDYWGQGTQVTVSS”, the “polyreactivity (PSR sort gate)” value is listed as “low polyreactivity”.
For the sequence “QVQLVESGGGLVQAGGSLRLSCAASGRIFRLYAMGWYRQAPGKEREFVATITWIGGRTYYADSVKGRFTISRDNAKNTVYLQMNSLKPEDTAVYYCAADPGYTYEYWGQGTQVTVSS”, the “polyreactivity (PSR sort gate)” value is given as “low polyreactivity”.
Turning to “QVQLVESGGGLVQAGGSLRLSRAASGRTFYFNAMGWYRQAPGKERELVAGISGDGSTNYADSVKGRFTISRDNAKNTVYLQMNSLKPEDTAVYYCAKTLGSQNYDFDYWGQGTQVTVSS”, the “polyreactivity (PSR sort gate)” value was “low polyreactivity”.

The record behind these values is the nanobody polyreactivity screen of Harvey et al. (2022).
